Data from publication doi:10.1101/2021.09.09.459598.

Molecular target: soybean QUAC1 from Glycine max (GmQUAC1) (soybean (Glycine max))
Test: cryo-EM structure

Substance: soybean QUAC1 from Glycine max (GmQUAC1) (natural protein)
- stoichiometry N: 2
